Experimental data from US11407840B2, “Antibodies to M(H)DM2/4 and their use in diagnosing and treating cancer” (NomoCan Pharmaceuticals LLC, priority 2017, dated 2022).

Columns and labels:
[1] = tested on: human, murine, rabbit protein; set-up: key: H—binds to human protein; M—binds to murine protein; R—binds to rabbit protein; settings: Table 10; cited from earlier work
[2] = tested on: human pancreatic cancer MIA PaCa-2 cells; test: Cell-ELISA, intact cells; format: binding
Description: (§1) Cell-ELISA Methodology: 8,000-10,000 cells/well of a 96-well microplate were grown overnight. The next day, unbound cells were washed off with sterile 1× PBS. The cells in each well were fixed with freshly prepared 4% buffered paraformaldehyde (pH 7.2) for 1 hour followed by 3 washes with 1× PBS. The wells were then blocked with 5% BSA in PBS (100 ? /well) for 2 hours at room temperature. Microplate wells were then washed 5 times with 300 ? of ice cold 1× PBS. MAbs NMC-103, NMC-204 or NMC-303 at 1 μg/mL in 1% BSA/PBS were then incubated with various cancer or normal untransformed cells for 2 hours at room temperature. Wells were then washed with 300 ? of ice-cold 1× PBS for 5 times and corresponding secondary antibody HRP-GaM F(ab′)2 diluted 1:2500 or 1:5000 in PBS with 1% BSA were added at 100 ? /well for 1 hour at room temperature followed by washing 5 times with 300 ? of ice-cold 1× PBS. TMB Substrate Solution (1-StepTM Ultra TMB-ELISA, ThermoFisher, Cat. No. 34028) was then added at 50 ? ? to each microplate well and incubated at room temperature for 30 minutes. The reaction was stopped by addition of 50 μL, of stop solution (ThermoFisher, Cat. No. SSO4) to each well and absorbance of each well was measured at OD450 nm. The absorbance value of each experimental well was corrected for the absorbance value obtained from wells treated with isotype-identical mAbs included in each experiment. The results are thus expressed as “relative binding”.

[3] = tested on: plasma membrane M(H)DM2/4; test: Plasma membrane M(H)DM2/4 after chemotherapeutic agents in vitro; format: cell-based; settings: data not shown
[4] = target: NMC-P3 peptide (SEQ ID NO:3), amino acids 475-491 of HDM2 (Homo sapiens, UniProt Q00987); test: Peptide-ELISA, NMC-P3 peptide; format: binding; settings: 5 μg/ml peptide dried on plate; OD 450 nm
Description: Peptide-ELISA Methodology: 5 μg/ml of NMC-P1, NMC-P2 or NMC-P3 peptide antigen was dried onto a 96-well ELISA plate overnight. Plates were then blocked with 5% BSA in 1× phosphate-buffered saline (PBS) (100 ? /well) for 2 hours at room temperature. Microplate wells were then washed 5 times with 300 ? of ice cold 1× PBS. Appropriate dilutions of monoclonal antibodies NMC-103, NMC-204 or NMC-303 in 1% bovine serum albumin (BSA) in PBS solution were then incubated with their corresponding peptides (NMC-P1, NMC-P2 or NMC-P3, respectively) at room temperature. After 2 hours, wells were washed 5 times with 300 ? ? ice-cold PBS/well and 100 ? secondary antibody (HRP-labeled Goat anti-Mouse F(ab′)2 H&L cross-adsorbed secondary antibody (HRP-GaM F(ab′)2), ThermoFisher, Cat. No. A24524) diluted 1:2500 to 1:5000 in PBS-1% BSA solution were added and the incubation continued at room temperature. After 1 hour, the wells were washed again 5 times with 200 ? of ice-cold PBS and 50 μiL of the TMB Substrate Solution (1-StepTM Ultra TMB-ELISA, ThermoFisher, Cat. No. 34028) were added to each well and color was allowed to develop for 30 minutes at room temperature. The reaction was stopped by addition of 50 μ ? ? of stop solution (ThermoFisher, Cat. No. SSO4) to each well and absorbance of each well was read immediately for optical density (OD) at 450 nm.

[5] = tested on: normal human peripheral blood mononuclear cells (PBMCs); test: Cell-ELISA, intact normal cells; format: binding; settings: freshly isolated PBMCs; FIG. 6
Description: as §1

[6] = target: T1, recombinant full-length HDM2 protein (GST tagged) (Homo sapiens, UniProt Q00987); test: Western blot (immunoblot); format: binding; settings: 1 μg/well protein; band at approximately 83 kD; FIG. 2
T1 construct: reacted with the recombinant full-length HDM2 protein; purchased Abcam ab188727
Description: Western Blot: As for immunoblots, 1 μg/well of recombinant FIDM2 protein (GST tagged, Abeam, Cat. No. ab188727) was separated on 8-16% sodium dodecyl sulfate (SDS) polyacrylamide gel and proteins were then transferred to polyvinylidene difluoride (PVDF) membrane. The membrane was blocked with 5% milk followed by incubation with monoclonal antibody NMC-103, NMC-204 or NMC-303 at 1 μg/πι ? in 1% milk in PBS for 2 hours. The membrane was then washed×3 times (10 minutes each) and incubated for 1 hour with corresponding HRP-conjugated secondary antibody (Goat anti-Mouse IgG (H&L), F(ab′)2 Frag Cross-adsorbed HRP (HRP-GaM F(ab′)2), ThermoFisher, Cat. No. A24524) diluted 1:5000 in 1% BSA-PBS. The membrane was then washed×3 times and incubated with Pierce ECL Plus Western Blotting Substrate (ThermoFisher, Cat. No. #32132) for 10 min before developing on a LICOR Scanner.

[7] = tested on: human breast cancer MCF-7 cells; test: Cell-ELISA, intact cells; format: binding; settings: mAb 1 μg/mL, FIGS. 3-5
Description: as §1

[8] = tested on: CT-26 (subcutaneous tumors); test: CT-26 syngeneic mouse model of colon cancer; format: in vivo, mouse (BALB/c); settings: day 24 post tumor inoculation; 10 mg/kg two times a week for 3 weeks; n=4; FIG. 32A
Description: Utilizing another syngeneic mouse model of colon cancer, CT-26 (Selby et al., 2016, PLoS One. 9; 11(9): e0161779), the anti-tumor efficacy of a chimeric version of monoclonal antibody NMC-303 was assessed. To create the chimeric version of monoclonal antibody NMC-303, isotype class-switching was performed on a mouse NMC-303 (having heavy variable regions of SEQ ID NO:40 and light chain variable regions of SEQ ID NO:41) to convert it from a mouse IgM to a chimeric IgG1. The mouse Heavy and Light chain variable regions (SEQ ID NO:40 and SEQ ID NO:41, respectively) were cloned into a human Ig gamma-1 chain and human Ig kappa chain as constant region. A total of eight (8) BALB/c mice were injected subcutaneously with CT-26 (800,000 cells/mouse). Mice were then divided into two groups (n=4) that received: A) control antibody (10 mg/kg) or B) the chimeric version of monoclonal antibody NMC-303 (10 mg/kg) two times a week for 3 weeks. […] Due to the human constant region of the chimeric version of the monoclonal antibody NMC-303, the anti-tumor efficacy of this antibody might be improved if tested in mouse models with human immune background. The above in vivo results further support the anti-tumor efficacy of antibodies raised against NMC-P3 immunogen that target the extracellularly accessible epitopes of the M(H)DM2/4 on cancer cells.

T1 sequence (Q00987 whole entry): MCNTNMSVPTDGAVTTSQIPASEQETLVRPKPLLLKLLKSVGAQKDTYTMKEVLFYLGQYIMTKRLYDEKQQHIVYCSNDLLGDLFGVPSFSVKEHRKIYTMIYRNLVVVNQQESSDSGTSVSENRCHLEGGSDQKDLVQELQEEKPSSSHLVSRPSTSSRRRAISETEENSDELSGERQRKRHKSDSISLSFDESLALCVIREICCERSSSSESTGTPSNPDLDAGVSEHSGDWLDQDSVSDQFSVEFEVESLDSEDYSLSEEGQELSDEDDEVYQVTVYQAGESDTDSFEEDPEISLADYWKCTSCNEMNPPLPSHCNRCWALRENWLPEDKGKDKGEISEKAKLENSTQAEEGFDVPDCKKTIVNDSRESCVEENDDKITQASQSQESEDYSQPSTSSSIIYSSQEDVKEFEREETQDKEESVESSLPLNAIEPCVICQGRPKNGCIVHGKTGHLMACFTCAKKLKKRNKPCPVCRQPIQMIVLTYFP

For Cytochrome C [reference compound], the “Species Reactivity” value [1] is given as “H” and the “binding to intact, EDTA-released MiaPaCa-2 cells, cell-ELISA” value ([2]; EDTA 10 mmols, pH 7.2, 5 min, 37° C., FIG. 10) is given as “only minimal binding”.

For `Nc1ccn([C@@H]2O[C@H](CO)[C@@H](O)C2(F)F)c(=O)n1` [Gemcitabine], the “plasma membrane M(H)DM2/4 of treated cells” value [3] was “increase”.

With `CC(=O)O[C@H]1C(=O)[C@@]2(C)[C@H]([C@H](OC(=O)c3ccccc3)[C@]3(O)C[C@H](OC(=O)[C@H](O)[C@@H](NC(=O)c4ccccc4)c4ccccc4)C(C)=C1C3(C)C)[C@]1(OC(C)=O)CO[C@@H]1C[C@@H]2O` [Paclitaxel] the “plasma membrane M(H)DM2/4 of treated cells” value [3] was “increase”.

B1: NMC-303: mouse monoclonal antibody, IgM isotype, binds NMC-P3 (SEQ ID NO:3); VH SEQ ID NO:40, VL SEQ ID NO:41 (antibody, V domains shown)
VH: QVQLQQPGAELVKPGASVKLSCKASGYTFTSYYMYWVKQRPGQGLEWIGGINPRNGGTNFNEKFKNKATLTADKSSTTAYMQLSSLTSEDSAVYYCTRSGYYAMDYWGQGTSVTVSS
VL: DIQMTQTTSSLSASLGDRVTISCRASQDISNFLNWYQQKPDGTVKLLIYYTSRLHSGVPSRFSGSGSGTDYSLTISNLEQEDIATYFCQQGNTLPRTFGGGTKLEIK
modifications: mAb NMC-303 Heavy Chain Variable Region; mAb NMC-303 Light Chain Variable Region
With B1 the “binding to NMC-P3 peptide (peptide-ELISA)” value [4] was “bound”, the “binding to intact normal human PBMCs, cell-ELISA” value [5] was “virtually no binding” and the “reactivity with recombinant full-length HDM2-GST protein in immunoblot” value [6] was “reacted”. The “binding to intact MIA PaCa-2 cells when competed with NMC-P3 peptide” value ([2]; FIG. 8C) was “competed”, the “relative binding (reactivity) to intact cells, cell-ELISA” value ([2]; MIA PaCa-2, mAb 1 μg/mL, FIGS. 3-5) was “reactivity” and the “relative binding (reactivity) to intact cells, cell-ELISA” value [7] was “reactivity”.

B2: chimeric version of monoclonal antibody NMC-303: chimeric IgG1: mouse NMC-303 variable regions cloned into human Ig gamma-1 chain and human Ig kappa chain constant regions (antibody, V domains shown)
VH: B1 VH
VL: B1 VL
modifications: human IgG1 and kappa constant regions lack entries; mAb NMC-303 Heavy Chain Variable Region; mAb NMC-303 Light Chain Variable Region
notes: chimeric IgG1: mouse NMC-303 variable regions cloned into human Ig gamma-1 chain and human Ig kappa chain constant regions
B2 showed an average tumor size [8] of 726 mm^3.
